Laboratory results from patent US20150037343A1.
Changes are numbered by the printed parent chain. Values belong to the binder of their own block, whether it stands above or below them.

Target: FLAG-tagged Ang2 mutant A449 (alanine) (human) (UniProt O15123)
Assay: ELISA, scFv coated, FLAG-tagged mutant Ang2, anti-FLAG-HRP

Sequence of UniProt O15123 (O15123 other isoform, or with tags, fused parts or gaps mutant): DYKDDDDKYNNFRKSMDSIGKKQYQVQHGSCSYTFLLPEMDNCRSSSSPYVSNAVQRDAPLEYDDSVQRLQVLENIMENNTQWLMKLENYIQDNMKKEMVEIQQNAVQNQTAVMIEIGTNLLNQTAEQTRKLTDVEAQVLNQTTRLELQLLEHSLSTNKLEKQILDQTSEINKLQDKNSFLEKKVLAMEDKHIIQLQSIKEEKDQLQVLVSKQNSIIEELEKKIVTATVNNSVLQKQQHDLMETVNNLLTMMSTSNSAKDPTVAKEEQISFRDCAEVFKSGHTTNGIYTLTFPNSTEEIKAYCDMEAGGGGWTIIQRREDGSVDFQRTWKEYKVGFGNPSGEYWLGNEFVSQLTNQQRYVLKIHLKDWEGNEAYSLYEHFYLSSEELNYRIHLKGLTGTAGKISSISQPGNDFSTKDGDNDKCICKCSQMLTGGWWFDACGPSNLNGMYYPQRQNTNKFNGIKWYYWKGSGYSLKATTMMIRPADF

B1: SAIT-ANG2-AB-2-E6 (scFv form) (scFv, V domains shown)
VH: EVQLLESGGGLVQTGGSLRLSCAASGFTFSDYAMSWVRQAPGKGLEWVSAIYPDSGNKYYADSVKGRFTISRDNSKNTLYLQMNSLRAEDTAVYYCARHSSDPKVKSGYYDDGMDVWGQGTLVAVSS
VL: QSVLTQPPSASGTPGQRVTISCSGSSSNIGNNAVNWYQQLPGTAPKLLIYADSNRPSGVPDRFSGSKSGTSASLAISGLRSEDEADYYCGSWDYSLSGYVFGGGTKLTVLG
Relative binding (%) with Mutant Ang2 compared to the binding with native Ang2: 3.3%

B4: SAIT-ANG2-AB-4-C11 (scFv form) (scFv, V domains shown)
VH: EVQLLESGGGLVQPGGSLRLSCAASGFTFSDYAMSWVRQAPGKGLEWVSSIYPDDGNTYYADSVKGRFTISRDNSKNTLYLQMNSLRAEDTAVYYCARHTSHHTSIDGYYYYGMDGWGQGTLVTVSS
VL: B1 VL with S23T, A33D, N35S, A51S, N54K
Relative binding (%) with Mutant Ang2 compared to the binding with native Ang2: 4.8%

B5: SAIT-ANG2-AB-7-C9 (scFv form) (scFv, V domains shown)
VH: EVQLLESGGGLVQPGGSLRLSCAASGFTFSNYAMSWVRQAPGKGLEWVSAISSGGGNIYYADSVKGRFTISRDNSKNTLYLQMNSLRAEDTAVYYCAKSGIQPSPPSMSSAYAMDVWGQGTLVTVSS
VL: B1 VL with A33D, N35Y, D52N, N54H, S91T
Relative binding (%) with Mutant Ang2 compared to the binding with native Ang2: 14.5%

B6: SAIT-ANG2-AB-3-D3 (scFv form) (scFv, V domains shown)
VH: EVQLLESGGGLVQPGGSLRLSCAASGFTFSDYDMSWVRQAPGKGLEWVSGISSDDGNTYYADSVKGRFTISRDNSKNTLYLQMNSLRAEDTAVYYCARPTIDKYTLRGYYSYGMDVWGQGTLVTVSS
VL: B1 VL with S23T, N31S, A33Y, N35S, A51S, S53N, N54K, S91T, Y94D, S97N
Relative binding (%) with Mutant Ang2 compared to the binding with native Ang2: 101%

Results, then the binder that gave them:

Relative binding (%) with Mutant Ang2 compared to the binding with native Ang2: 14%
B2: SAIT-ANG2-AB-4-F5 (scFv form) (scFv, V domains shown)
VH: EVQLLESGGGLVQPGGSLRLSCAASGFTFSDYDMSWVRQAPGKGLEWVSSISHGDSNKYYADSVKGRFTISRDNSKNTLYLQMNSLRAEDTAVYYCAKSSGIQESPPTYYYYGMDVWGQGTLVTVSS
VL: B1 VL with N31S

Relative binding (%) with Mutant Ang2 compared to the binding with native Ang2: 16.7%
B3: SAIT-ANG2-AB-4-F11 (scFv form) (scFv, V domains shown)
VH: EVQLLESGGGLVQTGGSLRLSCAASGFTFSDYAMSWVRQAPGKGLEWVSSIYPDDGNTYYADSVKGRFTISRDNSKNTLYLQMNSLRAEDTAVYYCAKHPVRLNLHPMYYYYGMDVWGQGTLVTVSS
VL: B1 VL with S23T, N35S, A51S, N54Q, G90A, S91T, G98A
